Values of other authors as cited in US20020119948A1, “METHOD FOR EXTENDING THE SATIETY OF FOOD BY ADDING A NUTRITIONAL COMPOSITION DESIGNED TO STIMULATE CHOLECYSTOKININ(CCK)” (PacificHealth Laboratories, Inc., priority 2000, published 2002).

Tested on: Individuals
Conditions: CCK administered by injection

B1: cholecystokinin (peptide, UniProt P06307 21-115, looked up)
Cholecystokinin: QPVPPADPAGSGLQRAEEAPRRQLRVSQRTDGESRAHLGALLARYIQQARKAPSGRMSIVKNLQNLDPSHRISDRDYMGWMDFGRRSAEEYEYPS
modifications: Cholecystokinin
In the case of B1, the “decrease in caloric intake” value is listed as 16-22%.
